Source: paper PMC11059001, “Crystal structure of Trichinella spiralis calreticulin and the structural basis of its complement evasion mechanism involving C1q” (Frontiers in Immunology, 2024)

Biological target: T1, complement C1q (human, UniProt P02745;P02746;P02747)
T1 construct: also called human complement C1q; source: bought: Merk (Darmstadt, Germany); copies: 6 + 6 + 6
Test: MST; fluorescently labelled C1q (RED-NHS) 40 nM; TsCRT, TsCRT^Δ, mutants or P^TsCRT gradient-diluted; 50 mM Hepes, 150 mM NaCl, 2 mM CaCl2, 0.05% Tween 20, pH 7.4; Monolith NT.115, LED power 20%, MST power 50%
Details: both partners purified

T1 sequence (P02745 23-245, chain 1 of 3): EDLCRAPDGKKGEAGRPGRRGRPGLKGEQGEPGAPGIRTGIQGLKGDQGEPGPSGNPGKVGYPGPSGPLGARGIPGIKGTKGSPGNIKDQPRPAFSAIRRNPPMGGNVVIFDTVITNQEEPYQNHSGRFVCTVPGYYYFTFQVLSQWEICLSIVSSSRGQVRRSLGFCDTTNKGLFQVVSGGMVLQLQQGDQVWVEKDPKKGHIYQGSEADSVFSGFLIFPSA
T1 sequence (P02746 28-253, chain 2 of 3): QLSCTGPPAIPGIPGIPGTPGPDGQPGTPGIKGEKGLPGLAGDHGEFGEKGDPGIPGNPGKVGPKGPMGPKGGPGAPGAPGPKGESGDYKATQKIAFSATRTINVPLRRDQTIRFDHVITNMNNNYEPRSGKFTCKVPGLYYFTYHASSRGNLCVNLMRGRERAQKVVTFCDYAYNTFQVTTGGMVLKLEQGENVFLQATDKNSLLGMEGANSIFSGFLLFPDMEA
T1 sequence (P02747 29-245, chain 3 of 3): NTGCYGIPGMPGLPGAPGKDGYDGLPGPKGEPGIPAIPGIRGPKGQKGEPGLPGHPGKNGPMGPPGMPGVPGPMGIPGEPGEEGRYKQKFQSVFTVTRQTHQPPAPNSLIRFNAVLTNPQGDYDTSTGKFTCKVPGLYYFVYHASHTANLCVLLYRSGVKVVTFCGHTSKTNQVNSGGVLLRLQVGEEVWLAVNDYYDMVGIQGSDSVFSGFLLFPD

B1: C1q-binding peptide P^TsCRT (TsCRT residues 122-146) (peptide)
peptide: DLEDFNSDTPYRIMFGPDICGPEKR
notes: calreticulin of Trichinella spiralis (TsCRT), residues 122-146; source: synthetic peptide
- Kd: 260 nM
